± gives the uncertainty stated by the source.
Test: self-splicing fitness, log relative to wild type (ln ratio); higher = more splicing; Tetrahymena group I intron in knt gene, E. coli kanamycin selection, DiMSum; sequences stand for … in CUCUCU…GGAGGGAAAAGUUAUCAGGCAUGCACCUGGUAGCUAGUCUUUAAACCAAUAGAUUGCAUCGGUUUAAAAGGCAAGACCGUCAAAUUGCGGGAAAGGGGUCAACAGCCGUUCAGUACCAAGUCUCAGGGGAAACUUUGAGAUGGCCUUGCAAAGGGUAUGGUAAUAAGCUGACGGACAUGGUCCUAACCACGCAGCCAAGUCCUAAGUCAACAGAUCUUCUGUUGAUAUGGAUGCAGUUCACAGACUAAAUGUCGGUCGGGGAAGAUGUAUUCUUCUCAUAAGAUAUAGUCGGACCUCUCCUUAAUGGGAGCUAGCGGAUGAAGUGAUGCAACACUGGAGCCGCUGGGAACUAAUUUGUAUGCGAAAGUAUAUUGAUUAGUUUUGGAGUACUCGUGGUCG
Procedure, shortened: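 Colonies from six replicate transformations of E. coli BL21(DE3) were pooled and amplicon-sequenced on an Illumina HiSeq 2500. The library placed an intron with all eight P1ex-region nucleotides randomised inside the knt kanamycin-resistance gene on pET-22b(+), and cells grew overnight at 37°C or 30°C on LB agar with or without 25 μg/mL kanamycin (plus 100 μg/mL carbenicillin, 50 μM IPTG, 0.2% rhamnose). Fitness is the DiMSum error-weighted combination of wild-type-normalised replicate fold changes, kanamycin versus none.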

## AACAAGCAAUAUUACGGAUC
30 °C
  self-splicing fitness (ln): -1.6 ± 0.093
37 °C
  self-splicing fitness (ln): -0.302 ± 0.11

## AUAUAGCAAUAUUACGAUGU
30 °C
  self-splicing fitness (ln): 0.361 ± 0.18
37 °C
  self-splicing fitness (ln): -0.83 ± 0.23

## UAUCAGCAAUAUUACGCCGA
30 °C
  self-splicing fitness (ln): -1.32 ± 0.12
37 °C
  self-splicing fitness (ln): -0.34 ± 0.18

## GAACAGCAAUAUUACGUAUA
30 °C
  self-splicing fitness (ln): -0.835 ± 0.083
37 °C
  self-splicing fitness (ln): -0.324 ± 0.1

## AGUUAGCAAUAUUACGAGUU
30 °C
  self-splicing fitness (ln): -1.5 ± 0.086
37 °C
  self-splicing fitness (ln): -0.514 ± 0.11

## GUAUAGCAAUAUUACGGAAU
30 °C
  self-splicing fitness (ln): -2.27 ± 0.23
37 °C
  self-splicing fitness (ln): -2.39 ± 0.21

## GACGAGCAAUAUUACGCAUC
37 °C
  self-splicing fitness (ln): -2.06 ± 0.36

## UUAGAGCAAUAUUACGCCGA
30 °C
  self-splicing fitness (ln): -0.286 ± 0.14
37 °C
  self-splicing fitness (ln): 0.255 ± 0.18

## CUACAGCAAUAUUACGUGAG
30 °C
  self-splicing fitness (ln): -0.958 ± 0.058
37 °C
  self-splicing fitness (ln): -0.926 ± 0.086

## UAUCAGCAAUAUUACGUGUU
30 °C
  self-splicing fitness (ln): -3.36 ± 0.14
37 °C
  self-splicing fitness (ln): -2.83 ± 0.12

## UUCUAGCAAUAUUACGCUAG
30 °C
  self-splicing fitness (ln): -3.41 ± 0.23
37 °C
  self-splicing fitness (ln): -2.42 ± 0.41

## ACGGAGCAAUAUUACGCGAA
30 °C
  self-splicing fitness (ln): -3.05 ± 0.32
37 °C
  self-splicing fitness (ln): -1.57 ± 0.23

## AAAUAGCAAUAUUACGCCUU
30 °C
  self-splicing fitness (ln): -0.206 ± 0.073
37 °C
  self-splicing fitness (ln): 0.557 ± 0.1

## GGAGAGCAAUAUUACGGUGU
30 °C
  self-splicing fitness (ln): -3.55 ± 0.28
37 °C
  self-splicing fitness (ln): -2.38 ± 0.18

## ACCUAGCAAUAUUACGAUUG
30 °C
  self-splicing fitness (ln): -3.2 ± 0.21
37 °C
  self-splicing fitness (ln): -2.28 ± 0.25

## GUUAAGCAAUAUUACGGACG
30 °C
  self-splicing fitness (ln): -1.07 ± 0.12
37 °C
  self-splicing fitness (ln): -1.3 ± 0.14

## GCUGAGCAAUAUUACGGUCU
30 °C
  self-splicing fitness (ln): -2.03 ± 0.2
37 °C
  self-splicing fitness (ln): -1.65 ± 0.21

## UCCCAGCAAUAUUACGCAAU
30 °C
  self-splicing fitness (ln): -2.69 ± 0.11
37 °C
  self-splicing fitness (ln): -2.16 ± 0.13

## GUGAAGCAAUAUUACGUUAU
30 °C
  self-splicing fitness (ln): -1.15 ± 0.08
37 °C
  self-splicing fitness (ln): -1.2 ± 0.11

## ACUAAGCAAUAUUACGGGCG
30 °C
  self-splicing fitness (ln): -0.856 ± 0.091
37 °C
  self-splicing fitness (ln): -0.529 ± 0.1

## AAUGAGCAAUAUUACGGCGC
30 °C
  self-splicing fitness (ln): -1.82 ± 0.089
37 °C
  self-splicing fitness (ln): -1.09 ± 0.11

## GCCAAGCAAUAUUACGGUGG
30 °C
  self-splicing fitness (ln): -3.54 ± 0.15
37 °C
  self-splicing fitness (ln): -1.26 ± 0.14

## ACGCAGCAAUAUUACGUAGU
30 °C
  self-splicing fitness (ln): -2.76 ± 0.087
37 °C
  self-splicing fitness (ln): -1.92 ± 0.1

## CGCGAGCAAUAUUACGAGCU
30 °C
  self-splicing fitness (ln): -3.72 ± 0.37
37 °C
  self-splicing fitness (ln): -2.22 ± 0.27

## AUUGAGCAAUAUUACGGGUA
37 °C
  self-splicing fitness (ln): -2.06 ± 0.32

## UCGGAGCAAUAUUACGGAUC
30 °C
  self-splicing fitness (ln): -3.21 ± 0.43

## UUGCAGCAAUAUUACGUUUU
30 °C
  self-splicing fitness (ln): -3.97 ± 0.22
37 °C
  self-splicing fitness (ln): -1.85 ± 0.13

## GCUUAGCAAUAUUACGCAUG
30 °C
  self-splicing fitness (ln): -2.06 ± 0.27
37 °C
  self-splicing fitness (ln): -0.0774 ± 0.2

## ACUGAGCAAUAUUACGUGCG
30 °C
  self-splicing fitness (ln): -3 ± 0.13
37 °C
  self-splicing fitness (ln): -1.28 ± 0.11

## UUUGAGCAAUAUUACGCUGC
30 °C
  self-splicing fitness (ln): -3.12 ± 0.47

## UCUCAGCAAUAUUACGGUAG
30 °C
  self-splicing fitness (ln): -2.3 ± 0.098
37 °C
  self-splicing fitness (ln): -1.99 ± 0.15

## CGCGAGCAAUAUUACGCAAA
30 °C
  self-splicing fitness (ln): -2.95 ± 0.38
37 °C
  self-splicing fitness (ln): -3.4 ± 0.43

## CUAGAGCAAUAUUACGGUUU
30 °C
  self-splicing fitness (ln): -4.03 ± 0.31

## CCACAGCAAUAUUACGAGUC
30 °C
  self-splicing fitness (ln): -3.55 ± 0.24
37 °C
  self-splicing fitness (ln): -2.7 ± 0.22

## GAUUAGCAAUAUUACGGAUA
30 °C
  self-splicing fitness (ln): -1.36 ± 0.17
37 °C
  self-splicing fitness (ln): 0.0656 ± 0.2

## GCUCAGCAAUAUUACGGGUU
30 °C
  self-splicing fitness (ln): -1.29 ± 0.1
37 °C
  self-splicing fitness (ln): -1.09 ± 0.1

## UAGGAGCAAUAUUACGGCAG
30 °C
  self-splicing fitness (ln): -3.1 ± 0.37
37 °C
  self-splicing fitness (ln): -0.425 ± 0.25

## GGUGAGCAAUAUUACGCAGA
30 °C
  self-splicing fitness (ln): -2.51 ± 0.31
37 °C
  self-splicing fitness (ln): -2.52 ± 0.33

## UAUCAGCAAUAUUACGAGAG
30 °C
  self-splicing fitness (ln): -3.03 ± 0.15
37 °C
  self-splicing fitness (ln): -0.0372 ± 0.092

## CCAGAGCAAUAUUACGACAG
30 °C
  self-splicing fitness (ln): -0.807 ± 0.094
37 °C
  self-splicing fitness (ln): -0.408 ± 0.15

## CACGAGCAAUAUUACGUUCU
30 °C
  self-splicing fitness (ln): -3.56 ± 0.2
37 °C
  self-splicing fitness (ln): -2.02 ± 0.26

## UUGCAGCAAUAUUACGCCUU
30 °C
  self-splicing fitness (ln): -0.0132 ± 0.081
37 °C
  self-splicing fitness (ln): 0.15 ± 0.11

## CCUUAGCAAUAUUACGCGUA
30 °C
  self-splicing fitness (ln): -3.27 ± 0.38
37 °C
  self-splicing fitness (ln): -2.54 ± 0.36

## CUUGAGCAAUAUUACGCGCA
30 °C
  self-splicing fitness (ln): -2.81 ± 0.27
37 °C
  self-splicing fitness (ln): -2.23 ± 0.33

## AAUCAGCAAUAUUACGGCCG
30 °C
  self-splicing fitness (ln): -0.87 ± 0.12
37 °C
  self-splicing fitness (ln): 0.00722 ± 0.18

## GAGGAGCAAUAUUACGUACU
30 °C
  self-splicing fitness (ln): -2.16 ± 0.16
37 °C
  self-splicing fitness (ln): -0.205 ± 0.19

## CAGAAGCAAUAUUACGAUCG
30 °C
  self-splicing fitness (ln): -0.236 ± 0.078
37 °C
  self-splicing fitness (ln): 0.167 ± 0.1

## GUGAAGCAAUAUUACGGUAA
30 °C
  self-splicing fitness (ln): -0.519 ± 0.073
37 °C
  self-splicing fitness (ln): -0.169 ± 0.1

## UGAUAGCAAUAUUACGCCAG
30 °C
  self-splicing fitness (ln): -1.59 ± 0.23
37 °C
  self-splicing fitness (ln): -0.994 ± 0.49

— the supplement of paper PMC7877785
